Consider nine sequences from the DeepSol protein solubility set.

The series can be described thus: soluble on expression in E. coli; label from the status in PepcDB or PDB records.
“MRKMKTERAKEILVQLLKIPSPSGREDRVALYIMEFLHKLNYDVHIESDGEIIDLVVNPGAELFFEVHMDTIDPRAEPFVRGNIVYGTGASDIKGGIASILLMLEQLRKEGKDLNVGIVFVSDEEKGGRGSALFMERYRPKMAVVLEPTDLEVHIAHAGNIEAYFEVDGKEAHGACPESGINAIEQTFEMLQKLKDLEPFKAKGKYFDPHIGIQELICENPYYLIPALCKGRLEARLLPDQEVEDILDLIDPILDEYTVKYEYTEIWDGYELSEDEEIVQIAKSAMDMVGLDEFGAMRSWTDAINFTYNGTKTIVFGPGNLDISHTKQERIDVRDVVKASEFLLAVNEIFGNKS”: the “soluble on expression in E. coli” value is listed as “soluble”. In the case of “MRKSRDANPFKAMPNILYPDELMDKAYNRSEKIAGELRTTTRGLSTPKSKIIEDNKIRTTASVISDNLLKIVEKTPSIDNLDPFYREILEIMVGSDEFKKSLAAVQWASEIVKKLGTQYSRKVKKAPSPQATSIVRKEFIGRVSSVLKQIYPNMAFLGVARNKLKNIPTVKNLPSVVIAGYPNVGKSTLLRTLTDAEPEVNSYPFTTKGLNIGYTEEGIQIIDTPGVLDRPIYERNDIELHAVVAINYLSDMILFVIDPTEFCGFTMEEQFNLLQEIRKTFNVPILVALTKMDVDEIEGLDKLEEDLGEYEVLKVSSFKKEGIADLRERLLDILDEQGLMGLLEELEHHHHHH” it was “soluble”. In the case of “MRKTRNQAGARQALKQLGMRNTSRSAAPRRGCVLSCFFEHLSLYDHSFFPHHSSQMFLFLKDSRFRKKMASQQDASPPTGYNMGHRHSLTIETNPLHLLPSNMRRFSQADTARHPAAPLLSKLAARQQIPEAVAEKKDDEKPENK” it was “not soluble”.

On to “MRLDKYLSKSLHISRKEAKELIREGRVKVSGKVVKQAEYRVKEGEEVEVEGKSVKPKKNVYLMLYKPKGYLSTTEEDKKYPSFLELIREHFPSRKLFSAGRLDVDAEGLLLITDDGELAHRLTHPKWKVEKEYIVRLDRDIGDEELKKLYEVKLEEKPVQLVKAEKLSGDTVKAILTEGRHHVVKRLFKAVGHNVVYLKRTRVGNLRLDENMEPGEWRELTEEEVKELKRLVKYNPQN”, for which the “soluble on expression in E. coli” value was “soluble”.

In the case of “MRLDRYLSNSGVGTRKEVKKLIKQGRVTVNGRVVLDPGHPVLENDAVALDGEVVRFHKKVYILFYKPSGYVTSTKDPHSETIMEFLPPLKGIFPVGRLDKDAEGLLIITNDGDFAHRVISPKWSVEKEYIVKVEGEVTEDKIEKLKNGVTLRDGFFAKAKRVEKLSNDTLKIVITEGKYHQIKRMTAAVGLKTVHLKRTRIGGLVLPDDMKPGEYRFLSEEEVKKVFEREDQKEDTPRS”, the “soluble on expression in E. coli” value is listed as “not soluble”.

As for “MRLERVLEEARAKGYPIEDNGLGNLWVVLPRERFKEEMAHYKAMGFNFLADIVGLDYLTYPDPRPERFAVVYELVSLPGWKDGDGSRFFVRVYVPEEDPRLPTVTDLWGSANFLEREVYDLFGIVFEGHPDLRKILTPEDLEGHPLRKDYPLGETPTLFREGRYIIPAEFRAALTGKDPGLTFYKGGSRKGYRSLWADLKKAREVKG”, the “soluble on expression in E. coli” value was “soluble”. For “MRLIVVSGQSGAGKSVALRVLEDLGYYCVDNLPVSLLTAFIQSVQGSQQNVAVSIDIRNLPKEPSLVQDVLDQLKQNNDVSMLFLDASKETLLKRYSETRRIHPLSLSQSKPSLAQAIELEKQLLGPLKEQADLLLDSSNQSLHELSETVRMRIEGRERKDLVMVFQSFGFKYGLPTDADYVFDVRFLPNPHWEPDLRPLTGLDAPIKSFLEGHSEVMELKQQIQKFFEYWLPMLEKNNRSYLTIAIGCTGGKHRSVYLTQQLGEYFAQLGHQVQLRHTSLEKQ”, the “soluble on expression in E. coli” value is “soluble”. The result for “MRLKKIGEWLNASPEDQDKQNADLLQTLSKLTGKQLDANALQMLQNLLQAVESKNVSGTDQLLTETEKIFSEAKTALSANDSASDINGALKSDKEQSNQENEVSEPAKELIYIQMFISQLVEGNKLTDLGNGNEAHAIYQNGDQFLSALEKKGVSQQLIQDLKQQIFTKAESSSKLYSMTASELKSFQSLMDQMSMLPQKGTKEWSLAETQLKAFLLSKSSESSQDFGKSVLTPLSQSSSSKNASDVSGSIQPVDSKSGLQMLFSGYRGIGGVQTLDLQQMSSDIPNAETKTVADQVINAWKQMKYTPFGRSTGSFTIRLNPEHLGFVTIKLTNENGMFQSKIIASSQSAKELLEQHLPQLKQSLPNMAVQIDRFTLPVQSGDQPIYGQLADEQKQQQEGQRQQRQKKQSNDFGDLLDEVSMVEMEEEE” reads “soluble”; that for “MRLLHTMLRVGDLQRSIDFYTKVLGMKLLRTSENPEYKYSLAFVGYGPETEEAVIELTYNWGVDKYELGTAYGHIALSVDNAAEACEKIRQNGGNVTREAGPVKGGTTVIAFVEDPDGYKIELIEEKDAGRGLGN”, “soluble”.
